Reference: publication PMC3988887

Target: MBP-Cnn fusion containing the WT PReM domain (MBP-Cnn-WT) (Drosophila melanogaster)
Test: SEC-MALS; purified MBP-Cnn fusions; equal volume of protein at 15, 75 or 300 uM loaded onto the column; expected monomer mass 67.4 kDa (by MS)

stoichiometry N: 2
Substance: MBP-Cnn fusion containing the WT PReM domain (MBP-Cnn-WT) (domain or fragment)
